Assay results published in article doi:10.1101/2025.11.17.688825 (bioRxiv, 2025).

Target: T1, 14-3-3ζ (residues 1-245, 14-3-3ζ-strep, chain of the 14-3-3ζ/ERα^(LBD_F) complex) (human, UniProt P63104 1-245)
T1 sequence: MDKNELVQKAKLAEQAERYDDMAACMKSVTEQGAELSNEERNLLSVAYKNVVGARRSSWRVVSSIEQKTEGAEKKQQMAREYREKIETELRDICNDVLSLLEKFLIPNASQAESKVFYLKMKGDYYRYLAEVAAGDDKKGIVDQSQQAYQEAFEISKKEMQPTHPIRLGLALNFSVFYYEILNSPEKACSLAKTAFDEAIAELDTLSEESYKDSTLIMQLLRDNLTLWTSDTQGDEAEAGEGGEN
Assay: mass photometry

B1: ERα^(LBD_F) (ERα residues 302-595, S305A, F591R, P592R, phosphorylated T594) (domain or fragment)
chain: KKNALALSLTADQMVSALLDAEPPILYSEYDPTRPFSEASMMGLLTNLADRELVHMINWAKRVPGFVDLTLHDQVHLLECAWLEILMIGLVWRSMEHPGKLLFAPNLLLDRNQGKCVEGMVEIFDMLLATSSRFRMMNLQGEEFVCLKSIILLNSGVYTFLSSTLKSLEEKDHIHRVLDKITDTLIHLMAKAGLTLQQQHQRLAQLLLILSHIRHMSNKGMEHLYSMKCKNVVPLYDLLLEMLDAHRLHAPTSRGGASVEETDQSHLATAGSTSSHSLQKYYITGEAEGRRATV
modifications: phosphorylated T594 (PKA co-expression)
stoichiometry N: 1 ERα(LBD_F) per 14-3-3ζ (2:2)
